# Reference: the domain aggregation screens of Martell et al. (2025)
# Test: soluble fraction after stress (log2 fold change); higher = more stays soluble; pooled small domains, quantitative proteomics
# Details: stress: pH 4
# In short: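 Values are on a log2 scale, where higher means more of the domain stayed soluble after pH 4 stress. They are fold changes in the soluble amount of each domain from pooled custom libraries, measured by high-throughput quantitative proteomics. The fold change is taken to reflect aggregation propensity.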
row,Sequence,soluble fraction (log2)
1,HMLMLTPGQVSNSLNVSTATVRRWSARFARHLSPQPPNRKRSYTPDDLATLARVRDLSASGTSLAQIDIAL,-0.29
2,HMNEPITIALREAEEAANKILNEGVHSVELSPQNGYVRRLQHELIARYGLTSASRGSDPSRRVSVGAN,-0.273
3,HMDIYLDEVNRKILHLLSQGIKTRSLREYINLSMSAIEKRKKHMKELFLVEDGKDETLLNEARNKGF,-0.64
4,HMSSVEEILQTLGGRIRTQRLAQGISQQVLADRAGLSLGAVRQLEGSGQSGLDTLVRVLFVLGIVDEL,-1.57
5,HMRRVRRTRRLLQDGLLGLMQHKAVADISVKELAEAADVARATVYVHFKDPADVLHQLEQGLY,-0.151
6,HMSVALSENIKTRRKALKMSQEYVAEQLDISRQAVAKWEAGKSEPTTENLVKLAALFEMSVSELVE,0.35
7,HMGAFAIHTASELSAGMRIRHERFGPGVITGIDTANPASGARIQVDFDNGTSKTLLLSYAKFQI,0.22
8,HMGSKQVSVPDVRNLDYERASQQLREAGFVVGDVLRIRDDRAPAGTVIAQSPAAPALVPENARVSLLVSSG,0.00984
9,HMPTSPKANFLKELPQEFTRKQAVTIGDKLNIKERTVDNYLAKLEQAGYLVKPKAGYYQKIKS,0.22
10,HMTKGVQMFAEQLKRTRQSRHYSQAEIASKLGVTQQAIAKWETGVSTPSPTSISKLSDILGISTDVLLKGA,≥ 0.43
11,HMIIIMKPNASEEAVRKVTHIIESKGLQVHLSKGSQVTIVGVVGDKTRLQGSNIEISEGVDKVVAVT,-0.0906
12,HMAMNLQETVLMQLRDLILRGTFEPGQRLSEQPLAERLKASRTPVRSALVTLEQEGLIEASETGKYLVRQ,-0.845
13,HMRPRQDRSEETRDRILDAVVELIAERGLAGVSHRAVADRAGVSLSATSYYFGSKAELERAALEEHYRR,-0.992
14,HMQEKIREVANRIRELRESLEVSPEEMADHLKVTIGTYIEYERGEADIPASVLFGIAHRLNVDMAVLL,-1.36
15,HMADKGTITNQQEKILKALILFPEGASIEEIQKAADLGIDKRQFQRRLNTLIESGQINRTGKSRGTKYHTI,0.356
16,HMVELPDLIGKSKRLAFTQLEISGLKIGKIIYEPDLAKDAVLKILYNGKIVKAGEQLPRFATVDLVLG,-0.0904
17,HMDAMQAFPNPTVDEIHFVTPTTGRVYNAHGQLVMVLKNAQLVNVRQWSAGQYVIVREDGYAVRWIK,-0.43
18,HMNLAISAYQQLKSDIIRGVYAPGEKLLMSRLKVRYGLGIGPMREALSQLVSEHLVTAASQRGYRVAGM,0.129
19,HMSVPEAAERAIDVAQMRRALGELSPEQQRVLELAYFGGLTRQEIARATGTPLGTVHTRARLGLQNLRARL,-0.0378
20,HMGQGSAFVYYEVLPKQTEYSLTRKLGLGYADLLSLNPQLARGLQAGMVLKIPRDKAGNLEVKNDLILE,0.165
21,HMGKNYYEILGITKSASEEQVRKAFRGLAMEWHPDRNRSADSEERFKEINEAYQVLIDPKKRQMYDQYGR,0.349
22,HMQETIDVAALRVGMFVHLDLGWLAHPFPLSSFRISSEDQISTIRALGLKRVRWSSQHSELG,-1.27
23,HMKSDEGEIKKIVEEIISKNASVVEDYKKGKEVALQFLVGQGMKATKGSANPELLKKIILENI,-0.105
24,HMINLVPFELKFITAQVLDDIIKKIGINADTIILDINPKKIWVYAGEQELSDIQNIVKNVDVEDNI,-2.17
25,HMENLVPVVVATTNIEPRTQITDAMVKVEQIPALGRNESMLEDPALVVGGYATGKIYAGQSFIQPMVSK,0.192

row,Sequence,soluble fraction (log2)
1,HMTLLVPASKEAILGGLAKIDALKVILKPEKDYSKTHAMTIGTKDEVIAKLDSFLSGMDSEKNQVLIQEYM,-0.135
2,HMQSHGSRIWTDITGNFTREASFIELAEGKVTLQLTDGRRTIISFEILSKKDQEYVLDIGDS,-1.95
3,HMKKYDIKEAQEIAEINRIPGLVTTSHGRRVYFDPKIMQYVSEEQIVKKYGQKTVKMLDQWYVSNILNK,0.419
4,HMEKKKVPEVAGQDEAAARNVMTNSGFVVDVEQKEDDNVPAGKVITTAPAGGVEVVEGTKIILYVSKGSN,0.0237
5,HMTRKQTIYEFLRRMKSQHGLDAVYSTEEIANAVGVSRANVSSDLNRLFEEQLVEKLPGWPVKYRA,0.128
6,HMGFSLEQFGTDPDLKKIVENAFERIITASEGRIFKSDFSSNNSALPLEIFSFLIAVILLKLSGMN,-0.489
7,HMETSIQFIRLEIGHNHPWVNQTLKEIPTIPGTLIAAVLRGDEDQAIIPKGDTLLKEGDSVIIGAKEYQD,-1.61
8,HMSAEDQRRASQEAAYRFMQVMAGNEAGFEDAARALFAGDNHRFEVLIQSWPDDVRDHVSLLSVDAFA,-1.78
9,HMEEIALTDILNRFLSSLSLEQRKIFMRRYWYLSPIKEIATEYGMSESKIKMSLFRSRNELKKLLEKEGI,-0.406
10,HMISASDLQTYLKGMDYPARKEDLIVHAQRNNAPESVIAAIRQFSDRTYQSAADVSEEFGKI,-0.468
11,HMAIKTGAVTGHGVKVRKGPSTNEKAIHDVLYGSRLQILEEKNGFLKAKFEDGTTGWISKQFVTTTDKNLL,-0.0244
12,HMSILPGVYRHYKGNHYQVFYLAKHSETLEDMVVYQALYGERGIWVRPASMWNETVDDQGKQVKRFTYI,-1.22
13,HMQTGYHVRITASTLNVRRDHSASSAVATQVRRGEVYTIVDEYNNGGTLWGKLKSGAGWIALKYTQS,≥ 0.43
14,HMRSDHVFTSHLARRDKYISELESLSDSARDDHIQTIKEEDEYLLKYRRTRNLFGIPLNDEMKQFEPFNY,-1.16
15,HMKEQYDLNDREQQFISLVANGLNNKEIAETLFLSEGTVRNYLSNLLDKLGLRDRTQLAIFFYQHL,-1.74
16,HMLDVFSAEQVADVLSVSKRNLETWANNGKLIPDFIHGEVALYSKKQLEQFEQFQRFFNSSWDAERLIQP,-1.24
17,HMSSDLLGVRVRRARARAGLTRRRLSLLSGVSERFLAQLESGQGNISIVLIRRVAAALGAELVELIGS,-0.0528
18,HMNRLEFLQGLKAELEGRVPHSIIQENLRYYDSYISDEAAKGQSEEDVVESLGGPRIIARTIVDAA,-0.52
19,HMDVNKDLLGETLEKAKSYKADDWRKASYEALQKAIVEAEAVYKDEEADQVAVDRKVAALNKAINNLEAKG,0.241
20,HMAPKSALKIIEQISNNPRATMTDLANLTGYSRRWVAQTIKRLQEENIIKRIGSDKSGYWEIIG,0.417
21,HMKEVKAPMPGMVLRVEVAPGQEVQEGDPLLVLEAMKMENNLKSPASGTIKSVHVEAGKAVEKGAVLVVF,-0.257
22,HMDSKPNDLLFVYVSQLIRSLTLNSSKKDSELADELEVSISQIRIWLKKLINEQLIVKESKPVKYRWKG,-0.327
23,HMDKATMRWEQIEKFLETHPYIMNADVRALFNVSAATANRILATLTTEGKLVKYREGGHWAYKY,-0.217
24,HMYPDNSGDIQQLAQNIFRQENVSVDRDGLALISSRLGSDHAATRSEIEKLALLAGPGGTLTFETISEVLG,-0.942
25,HMDRMMQPETWGRVYQWITDDPQVPDREEVLTLIKYHYGDFGKLMKLLHRLNEGKAWTYLSEHIFPRM,-0.698

row,Sequence,soluble fraction (log2)
1,HMKNHIEERRKARGMTQQQLASELGVSRQTIISLENGKYNPSILLAHSIARLFGERIEDIFILR,-0.354
2,HMAGITLHAEEGRVRIRSQSEGLVKVLDAMGREQASWPLRSKGWWFFLTEGWAPGTYFVKTESGETQRFLV,0.215
3,HMQQGVEQLPVTEVGGRLMHYYEVQPKETLYSLSHKLGVGQEYIEQHNPSVRGGLRAFMTLYFPAA,-0.12
4,HMEPVDYEALRKELMQKVMGLFTQSRDVGIQILSSFGAKKLSDVPDDKLVAFAASVDKALAG,0.138
5,HMISFHEYLTQLLDEKGLTKAQVITDSNIQKNYGYQIFDGSKTPSRDKVIAIALAMQLTLDEANRLLHLSN,-0.618
6,HMIDFDHADIERLWNSIIHYVPERQKLDFAIDFIKSLEDIGVEHDVLRGSAELDPKLEEAVNTVFE,-0.315
7,HMETLYGQIVNDIMEKIESNAWPVGYVIPTESDFQKQYGVSRATVRNAILKLAHLGYLVRKKGSGTYVTRP,-0.287
8,HMDDDAELLLKKLSAAGGELPFHDRSEPAEIEAAFGLSKSAFKRALGKLLKAGKVVKTQQGIQLK,0.266
9,HMNSLTVPDITNRTLAEASQVLLDMGLTPIPDAVAKDGVGDDVVYAQSPPPNVGAREGDVVTITYNPA,0.093
10,HMGQDGFIGLEAAKKLVLQKLGLTSAEFIKAELDAEDRKYELELIVDGIEYDFDIDAYSGAFLKQEQETV,0.122
11,HMNHSITLTERKNLLITGVKKIENFDKEEFLIETTMGFLVVKGDGLELIKLDTISGNVSIKGIVNGFTYID,0.0772
12,HMSMLSQERQSLILDIIKEQGSVTVTRLTEILQSSESTVRRDLSYLASKGKINKVHGGATALG,-0.306
13,HMGKVTILSNPVKDALVIMGLHNAETIDVRLFDNTGRLVMQGSQSRMDISSLSPGLYILQVNGKILKVIK,-0.222
14,HMLTTADLMMVHANSNKAIDYIVTDDNTKLTVDEPVTAKWITTADSIYRAVAYYNKVGDGKAQIVSVGN,0.0559
15,HMTELIEDYVELIGDLIRHRGEARAADIANRMAVSQATVSKMIRRLNELGLVTSKPYRSLFLTDEGQKMAE,-0.469
16,HMTDDFAGRFNELLIHNQETAVTAATRLEVSPAVITKWRQGKSIPSGEYIKRIVETYHVSADYLLGVIDTP,-0.0517
17,HMETPEIPGLTPRQVEIMLLVGKGYSNKEIARFLTISPETVKTHLKEVFLRFGLRNRVEAIDFTRQNGL,-0.358
18,HMAKDEYGLTSNQRAFADEYIRNKGNATQAYLFAYPHIKKENTAAVNASRLLRNAKVSKYIADRTKEIL,-0.146
19,HMETGNEDYRVGKELAYDGNYKAATIYLMKSIKDDPNNPDAFNMLGFSHRKLGNNDEAYIYYNKALEL,-0.722
20,HMAVPLVRGTVTSSVGTVLLLSVGERDFFLSEGEEKDGVLLQSLSEKSAVVVVSGRAYTLSL,-0.435
21,HMGDDVRKNILDVLSKFERVDITDLDSLELVRFYLEIEDIFDIEIKENDFYRLKSVDSIVDYIRNKSFF,-1.64
22,HMGESEKTLELVSQKDALVDEAFFFVRFQALLESNKTKGAQDLLDQSNHLSAAKLLQANAYLDIV,0.038
23,HMPRVSIEKIKKVVELLKHNPDYTYSKIGNIVGIGRKTVSGINNGKLYTDLVEELGINEFPI,0.0348
24,HMGSTATVIASRLNMRASASTTGALLTKIPNGATVTVLGTTGAWSHIRYGSYTGYVMSQYLRING,-0.211
25,HMESDAIAAAIAALPARYREVLLLRYDNGFSYSEISKALDMTEAAVRKTVQRAKEALQRTLQIQEEDT,-0.219
